Results published in IntAct's records for PubMed 14517550.

B1: Caspase Dronc (Drosophila melanogaster (Fruit fly)), Q9XYF4 (parent)
chain: MQPPELEIGMPKRHREHIRKNLNILVEWTNYERLAMECVQQGILTVQMLRNTQDLNGKPFNMDEKDVRVEQHRRLLLKITQRGPTAYNLLINALRNINCLDAAVLLESVDESDSRPPFISLNERRTSRKSADIVDTPSPEASEGPCVSKLRNEPLGALTPYVGVVDGPEVKKSKKIHGGDSAILGTYKMQSRFNRGVLLMVNIMDYPDQNRRRIGAEKDSKSLIHLFQELNFTIFPYGNVNQDQFFKLLTMVTSSSYVQNTECFVMVLMTHGNSVEGKEKVEFCDGSVVDMQKIKDHFQTAKCPYLVNKPKVLMFPFCRGDEYDLGHPKNQGNLMEPVYTAQEEKWPDTQTEGIPSPSTNVPSLADTLVCYANTPGYVTHRDLDTGSWYIQKFCQVMADHAHDTDLEDILKKTSEAVGNKRTKKGSMQTGAYDNLGFNKKLYFNPGFFNE
partner: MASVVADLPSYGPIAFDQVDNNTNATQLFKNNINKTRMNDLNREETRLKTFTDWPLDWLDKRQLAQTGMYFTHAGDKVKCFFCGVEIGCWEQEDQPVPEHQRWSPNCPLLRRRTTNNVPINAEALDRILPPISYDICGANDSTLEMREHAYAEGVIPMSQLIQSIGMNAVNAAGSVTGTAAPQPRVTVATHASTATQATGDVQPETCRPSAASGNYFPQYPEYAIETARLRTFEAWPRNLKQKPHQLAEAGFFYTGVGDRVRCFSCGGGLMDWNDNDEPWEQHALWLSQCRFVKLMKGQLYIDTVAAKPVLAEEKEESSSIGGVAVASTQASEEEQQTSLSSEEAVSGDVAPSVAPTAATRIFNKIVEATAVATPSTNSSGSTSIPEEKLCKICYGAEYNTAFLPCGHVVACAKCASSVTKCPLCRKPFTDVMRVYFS

Variants of: B1
Details: with diap1_drome Diap1, Q24306

Variant	effect of a mutation on the interaction
MQPPELEIGMPKRHREHIRKNLNILVEWTNYERLAMECVQQGILTVQMLRNTQDLNGKPFNMDEKDVRVEQHRRLLLKITQRGPTAYNLLINALRNINCLDAAVLLESVDESDSRPPEISLNERRTSRKSADIVDTPSPEASEGPCVSKLRNEPLGALTPYVGVVDGPEVKKSKKIHGGDSAILGTYKMQSRFNRGVLLMVNIMDYPDQNRRRIGAEKDSKSLIHLFQELNFTIFPYGNVNQDQFFKLLTMVTSSSYVQNTECFVMVLMTHGNSVEGKEKVEFCDGSVVDMQKIKDHFQTAKCPYLVNKPKVLMFPFCRGDEYDLGHPKNQGNLMEPVYTAQEEKWPDTQTEGIPSPSTNVPSLADTLVCYANTPGYVTHRDLDTGSWYIQKFCQVMADHAHDTDLEDILKKTSEAVGNKRTKKGSMQTGAYDNLGFNKKLYFNPGFFNE [F118E]	decreasing interaction
